In publication PMC5766548:
Each block holds one substance with its values, some of them ahead of it.

Tests used:
[1] = target: enhanced GFP (EGFP); assay: AUC; sedimentation velocity; 0.33, 0.65 and 1.3 mg mL^-1; 20 mM Tris pH 7.5, 150 mM NaCl; 50,000 rpm, 20 °C; absorbance at 280 nm; c(s) distributions and weight average sedimentation coefficients against concentration
[2] = target: superfolder GFP (sfGFP) [GFP: P42212]; assay: SEC-SAXS; in-line Superdex 75 10/300 GL; 50 µL loaded at approximately 50 mg mL^-1 (> approximately 10 mg mL^-1 after dilution on the column); 25 mM Tris pH 7.5, 150 mM NaCl; profiles compared with CRYSOL curves of monomer and dimer of the usGFP crystal structure
[3] = target: ultra-stable GFP (usGFP) [GFP: P42212]; assay: as above

stoichiometry N [1]: 2
Substance: enhanced GFP (EGFP)

stoichiometry N [2]: 2
Substance: superfolder GFP (sfGFP) (from UniProt P42212 1-238)

stoichiometry N [3]: 2
Substance: ultra-stable GFP (usGFP) (from UniProt P42212 1-238)
